Target: SARS-CoV-2 protein S ectodomain, Wuhan-Hu-1 variant (SARS-CoV-2 | not stated) (UniProt P0DTC2)
Test: BLI

Substance: N-terminal peptidase domain of human ACE2 (domain or fragment)
- Kd: 79.3 nM
- koff: 0.0162 s⁻¹
- kon: 210000 M⁻¹ s⁻¹

Reference: publication PMC9302720
